Laboratory results as given in publication PMC10014292.

Columns and labels:
Conditions in all cases: glycan lost; control: wild type
[1] = Nppa, Rcan1 qPCR ± angiotensin II, rat cardiomyocytes
[2] = NFAT promoter activity with TRPC6 antagonist
[3] = whole-cell patch clamp, HEK-293T
[4] = cycloheximide chase, rate of YFP fluorescence decline

B1: TRPC6: T221A (protein)
parent chain: MSQSPAFGPRRGSSPRGAAGAAARRNESQDYLLMDSELGEDGCPQAPLPCYGYYPCFRGSDNRLAHRRQTVLREKGRRLANRGPAYMFSDRSTSLSIEEERFLDAAEYGNIPVVRKMLEECHSLNVNCVDYMGQNALQLAVANEHLEITELLLKKENLSRVGDALLLAISKGYVRIVEAILSHPAFAEGKRLATSPSQSELQQDDFYAYDEDGTRFSHDVTPIILAAHCQEYEIVHTLLRKGARIERPHDYFCKCNDCNQKQKHDSFSHSRSRINAYKGLASPAYLSLSSEDPVMTALELSNELAVLANIEKEFKNDYKKLSMQCKDFVVGLLDLCRNTEEVEAILNGDVETLQSGDHGRPNLSRLKLAIKYEVKKFVAHPNCQQQLLSIWYENLSGLRQQTMAVKFLVVLAVAIGLPFLALIYWFAPCSKMGKIMRGPFMKFVAHAASFTIFLGLLVMNAADRFEGTKLLPNETSTDNAKQLFRMKTSCFSWMEMLIISWVIGMIWAECKEIWTQGPKEYLFELWNMLDFGMLAIFAASFIARFMAFWHASKAQSIIDANDTLKDLTKVTLGDNVKYYNLARIKWDPSDPQIISEGLYAIAVVLSFSRIAYILPANESFGPLQISLGRTVKDIFKFMVIFIMVFVAFMIGMFNLYSYYIGAKQNEAFTTVEESFKTLFWAIFGLSEVKSVVINYNHKFIENIGYVLYGVYNVTMVIVLLNMLIAMINSSFQEIEDDADVEWKFARAKLWFSYFEEGRTLPVPFNLVPSPKSLFYLLLKLKKWISELFQGHKKGFQEDAEMNKINEEKKLGILGSHEDLSKLSLDKKQVGHNKQPSIRSSEDFHLNSFNNPPRQYQKIMKRLIKRYVLQAQIDKESDEVNEGELKEIKQDISSLRYELLEEKSQNTEDLAELIRELGEKLSMEPNQEETNR
- other: response to angiotensin II [1]: no change
- other: antagonist sensitivity [2]: no change
- other: channel current, other: percent increase in current [3]: increases
- degradation_or_half_life [4]: decreases
